The source of these data is patent publication US20240116997A1.

IL-18 WT (native sequence, SEQ ID NO: 1), sequence (Q14116 37-193): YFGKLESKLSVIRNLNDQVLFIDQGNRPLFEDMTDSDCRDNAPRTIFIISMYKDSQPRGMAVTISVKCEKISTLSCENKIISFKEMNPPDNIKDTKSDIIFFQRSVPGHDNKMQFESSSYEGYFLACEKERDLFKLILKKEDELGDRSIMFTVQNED

The assay deals with His-tagged human IL-18BP (human) (UniProt O95998). Kind of assay: AlphaLISA of free IL-18BP after incubation with IL-18 dilutions. For orientation: Alpha assays give light when donor and acceptor beads are brought close together.
His-tagged human IL-18BP (human), sequence (O95998 31-194): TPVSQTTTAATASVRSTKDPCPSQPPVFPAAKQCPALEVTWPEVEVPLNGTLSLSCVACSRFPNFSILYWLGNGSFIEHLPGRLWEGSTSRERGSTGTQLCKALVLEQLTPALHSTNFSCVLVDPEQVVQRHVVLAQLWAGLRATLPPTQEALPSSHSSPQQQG
As a reminder, the Kd is the free concentration of one partner at which half of the binding sites on the other are occupied at equilibrium, for simple one-to-one binding. The low end stands for a tighter complex, the high end for a looser complex. Consider “C142 (Y1M, E6K, V11I, C38A, K53A, T63A, C76A, C127A) (from UniProt Q14116 38-193) (ligand)”, for which the Kd was determined as 2.25 nM.

As to “C143 (V11I, C38A, K53A, C76A, C127A) (from UniProt Q14116 37-193) (ligand)”, the Kd was found to be 8.86 nM. With “C144 (V11I, C38A, K53A, T63A, C76A, C127A) (from UniProt Q14116 37-193) (ligand)” the figure was 0.66 nM.

As to “C145 (V11I, C38A, K53A, S55A, C76A, C127A) (from UniProt Q14116 37-193) (ligand)”, the Kd amounted to 9.74 nM. The value for “C146 (SEQ ID NO: 79; V11I, C38A, M51G, K53A, C76A, C127A) (from UniProt Q14116 37-193) (ligand)” was 373 nM; that for “C147 (V11I, C38A, K53A, D54A, C76A, C127A) (from UniProt Q14116 37-193) (ligand)” was 25.8 nM. As to “C148 (F2A, V11I, C38A, K53A, C76A, C127A) (from UniProt Q14116 37-193) (ligand)”, the Kd was determined as 57.2 nM. The value for “C149 (V11I, E31A, C38A, K53A, C76A, C127A) (from UniProt Q14116 37-193) (ligand)” was 0.64 nM; that for “C150 (V11I, T34A, C38A, K53A, C76A, C127A) (from UniProt Q14116 37-193) (ligand)” was 1.24 nM; that for “C151 (V11I, D35A, C38A, K53A, C76A, C127A) (from UniProt Q14116 37-193) (ligand)” was 2.88 nM.

Turning to “C152 (V11I, S36A, C38A, K53A, C76A, C127A) (from UniProt Q14116 37-193) (ligand)”, the Kd is 1.12 nM. Regarding “C153 (V11I, D37A, C38A, K53A, C76A, C127A) (from UniProt Q14116 37-193) (ligand)”, the Kd is 4.55 nM.

The substance “C154 (V11I, E31A, D37A, C38A, K53A, C76A, C127A) (from UniProt Q14116 37-193) (ligand)” registered a Kd of 2.12 nM. With “C155 (V11I, C38A, D40A, K53A, C76A, C127A) (from UniProt Q14116 37-193) (ligand)” the figure was 0.74 nM. The value for “C156 (V11I, C38A, N41A, K53A, C76A, C127A) (from UniProt Q14116 37-193) (ligand)” was 18.5 nM; that for “C157 (V11I, C38A, K53A, C76A, C127A, D132A) (from UniProt Q14116 37-193) (ligand)” was 13.7 nM. The substance “C158 (V11I, C38A, K53A, C76A, G108A, C127A) (from UniProt Q14116 37-193) (ligand)” showed a Kd of 1.24 nM. “C159 (V11I, C38A, K53A, C76A, H109A, C127A) (from UniProt Q14116 37-193) (ligand)”: the Kd was found to be 0.55 nM.

Consider “C160 (V11I, C38A, K53A, C76A, D110A, C127A) (from UniProt Q14116 37-193) (ligand)”, for which the Kd is 0.71 nM.

Substance “C161 (K8R, V11I, C38A, C76A, Q103E, C127A) (from UniProt Q14116 37-193) (ligand)” yielded a Kd of 0.06 nM.

Consider “C162 (K8E, V11I, C38A, C76A, Q103R, C127A) (from UniProt Q14116 37-193) (ligand)”, for which the Kd is 0.85 nM. With “C163 (V11I, C38A, C76A, Q103K, C127A) (from UniProt Q14116 37-193) (ligand)” the figure was 0.05 nM; with “C164 (V11I, C38A, S55H, C76A, C127A) (from UniProt Q14116 37-193) (ligand)”, 0.08 nM.

In turn, “C165 (V11I, C38A, S55R, C76A, C127A) (from UniProt Q14116 37-193) (ligand)” showed a Kd of 0.15 nM. “C166 (V11I, C38A, S55T, C76A, C127A) (from UniProt Q14116 37-193) (ligand)” had a Kd of 0.02 nM.

Turning to “C167 (V11I, C38A, C76A, S105I, C127A) (from UniProt Q14116 37-193) (ligand)”, the Kd is 0.04 nM. The value for “C168 (V11I, C38A, C76A, S105K, C127A) (from UniProt Q14116 37-193) (ligand)” was 0.05 nM; that for “C174 (K8L, E6K, V11I, C38A, K53A, T63A, C76A, C127A) (from UniProt Q14116 37-193) (ligand)” was 0.14 nM.

Regarding “C176 (E6K, V11I, C38A, I49M, K53A, T63A, C76A, C127A) (from UniProt Q14116 37-193) (ligand)”, the Kd came out at 25.8 nM.

In turn, “C184 (E6R, V11I, C38A, K53A, T63A, C76A, C127A) (from UniProt Q14116 37-193) (ligand)” gave a Kd of 5.46 nM. The value for “IL-18 WT (native sequence, SEQ ID NO: 1) (from UniProt Q14116 37-193) (ligand)” was 0.67 nM; that for “IL-18 polypeptide SEQ ID NO: 35 (Y01G, F02A, E06K, M51G, K53A, D54A, S55A, T63A) (from UniProt Q14116 37-193) (ligand)” was 969 nM; that for “IL-18 polypeptide SEQ ID NO: 36 (K53A) (from UniProt Q14116 37-193) (ligand)” was 514 nM. With “IL-18 polypeptide SEQ ID NO: 37 (S55A) (from UniProt Q14116 37-193) (ligand)” the figure was 10.7 nM; with “IL-18 polypeptide SEQ ID NO: 38 (E06K) (from UniProt Q14116 37-193) (ligand)”, 0.13 nM; with “IL-18 polypeptide SEQ ID NO: 39 (E06K, K53A) (from UniProt Q14116 37-193) (ligand)”, 130 nM. The value for “IL-18 polypeptide SEQ ID NO: 40 (E06K, S55A) (from UniProt Q14116 37-193) (ligand)” was 12.3 nM; that for “IL-18 polypeptide SEQ ID NO: 41 (K53A, S55A) (from UniProt Q14116 37-193) (ligand)” was 500 nM. “IL-18 polypeptide SEQ ID NO: 42 (E06K, K53A, S55A, T63A) (from UniProt Q14116 37-193) (ligand)” returned a Kd of 822 nM. The value for “IL-18 polypeptide SEQ ID NO: 47 (C38S, C68S, C76S, C127S) (from UniProt Q14116 37-193) (ligand)” was 0.03 nM.

“IL-18 polypeptide SEQ ID NO: 48 (C38S, C68S, C76S, C127S, K70C) (from UniProt Q14116 37-193) (ligand)” showed a Kd of 0.21 nM. As for “IL-18 polypeptide SEQ ID NO: 50 (E06K, K53A, T63A) (from UniProt Q14116 37-193) (ligand)”, the Kd came to 340 nM. The value for “IL-18 polypeptide SEQ ID NO: 51 (T63A) (from UniProt Q14116 37-193) (ligand)” was 2.59 nM; that for “IL-18 polypeptide SEQ ID NO: 52 (E06K, T63A) (from UniProt Q14116 37-193) (ligand)” was 0.83 nM; that for “IL-18 polypeptide SEQ ID NO: 53 (K53A, T63A) (from UniProt Q14116 37-193) (ligand)” was 198 nM. The value for “IL-18 polypeptide SEQ ID NO: 54 (E06K, K53A, C38S, C68S, C76S, C127S, K70C) (from UniProt Q14116 37-193) (ligand)” was 446 nM.

As for “IL-18 polypeptide SEQ ID NO: 55 (K53A, T63A, C38S, C68S, C76S, C127S, K70C) (from UniProt Q14116 37-193) (ligand)”, the Kd was 913 nM.

Substance “IL-18 polypeptide SEQ ID NO: 56 (E6K, K53A, C38S, C76S, C127S) (from UniProt Q14116 37-193) (ligand)” displayed a Kd of 436 nM. “IL-18 polypeptide SEQ ID NO: 57 (E6K, C38S, K53A) (from UniProt Q14116 37-193) (ligand)”: the Kd turned out to be 50.2 nM.
